# ± gives the uncertainty stated by the source.
# B1: POU domain, class 4, transcription factor 1, residues 266 to 347; numbered along this chain, Q01851 (parent)
# chain: RELEAFAERFKQRRIKLGVTQADVGSALANLKIPGVGSLSQSTICRFESLTLSHNNMIALKPILQAWLEEAEGAQREKMNKP
# Variants of: B1
# Assay: abundance fitness (aPCA) (normalised: wild type 0, dead -1); higher = more abundant; growth selection in yeast, the domain comes from the species named
# Conditions: Homo sapiens
row,Variant,abundance fitness
1,RETEAFAERFKQRRIKLGVTQADVGSALANLKIPGVGSLSQSTICRFESLTLSHNNMIALKPILQAWLEEAEGAQREKMNKP [L3T],-0.26 ± 0.057
2,RELEAFAERFKQRRIKLGVTQADVGSALANLKIPGVGSLSQSTICRFESLTLSHNEMIALKPILQAWLEEAEGAQREKMNKP [N56E],0.032 ± 0.044
3,RELEAFAERFKQRRIKLGVTQADVGSALANLKIPGVGSLSQSTIMRFESLTLSHNNMIALKPILQAWLEEAEGAQREKMNKP [C45M],0.03 ± 0.08
4,RELEAFAERFKQRRIKLGVTQADVGSALANLKIPGVGSLSQSTICRFESLWLSHNNMIALKPILQAWLEEAEGAQREKMNKP [T51W],-0.487 ± 0.065
5,RELEAFAERFKQRQIKLGVTQADVGSALANLKIPGVGSLSQSTICRFESLTLSHNNMIALKPILQAWLEEAEGAQREKMNKP [R14Q],-1.08 ± 0.12
6,RELEAFAERFKQRRIKLGVTQADVGSALANLKIPGVGELSQSTICRFESLTLSHNNMIALKPILQAWLEEAEGAQREKMNKP [S38E],0.016 ± 0.083
7,SELEAFAERFKQRRIKLGVTQADVGSALANLKIPGVGSLSQSTICRFESLTLSHNNMIALKPILQAWLEEAEGAQREKMNKP [R1S],-0.026 ± 0.033
8,RELEAFAERFKQRRIKLGVTQADVGSALANLKIPGVGSLSQSTICRFESLTLSHNNMIALKPILQAWLEEMEGAQREKMNKP [A71M],-0.005 ± 0.11
9,RELEAFAERFKQRRIKLGVTQADVGSALANLKIPGVGSLSQSTICRYESLTLSHNNMIALKPILQAWLEEAEGAQREKMNKP [F47Y],-0.272 ± 0.12
10,RELEASAERFKQRRIKLGVTQADVGSALANLKIPGVGSLSQSTICRFESLTLSHNNMIALKPILQAWLEEAEGAQREKMNKP [F6S],-0.516 ± 0.032
11,RELEAFAERFKQRRIKLGVTQADVGSALANLKIPGDGSLSQSTICRFESLTLSHNNMIALKPILQAWLEEAEGAQREKMNKP [V36D],-0.463 ± 0.42
12,RELEAFAERFKQRREKLGVTQADVGSALANLKIPGVGSLSQSTICRFESLTLSHNNMIALKPILQAWLEEAEGAQREKMNKP [I15E],0.02 ± 0.054
13,RELEAFAERFKQRRCKLGVTQADVGSALANLKIPGVGSLSQSTICRFESLTLSHNNMIALKPILQAWLEEAEGAQREKMNKP [I15C],-0.048 ± 0.049
14,RELEAFAERFKQRRIKLGVTQADVGSALANLKIPGVGSLSQSTICRFESLTLSHNNMIWLKPILQAWLEEAEGAQREKMNKP [A59W],-0.198 ± 0.05
15,RELEAFAERFKQRRIKLGVTQADVGSALANLKIPGVGSLSQSHICRFESLTLSHNNMIALKPILQAWLEEAEGAQREKMNKP [T43H],0.063 ± 0.12
16,RELEAFAERFKQRRIKLGVTQADVGSALANLKIGGVGSLSQSTICRFESLTLSHNNMIALKPILQAWLEEAEGAQREKMNKP [P34G],-0.088 ± 0.024
17,RELEAFAERFKQRRIKLGVTQADVGSALANLKIPGVGSLSQSTICRFESLTLSHNNMIALKPILQAELEEAEGAQREKMNKP [W67E],-0.806 ± 0.13
18,RELEAFQERFKQRRIKLGVTQADVGSALANLKIPGVGSLSQSTICRFESLTLSHNNMIALKPILQAWLEEAEGAQREKMNKP [A7Q],-0.712 ± 0.056
19,RELEAFNERFKQRRIKLGVTQADVGSALANLKIPGVGSLSQSTICRFESLTLSHNNMIALKPILQAWLEEAEGAQREKMNKP [A7N],-0.582 ± 0.078
20,RELEAFAERFKQRRIKLGVTQADVGSALANLKIPGVGSLSQSTICRFESLTLSHNNMIALKPILQAWLEEACGAQREKMNKP [E72C],-0.416 ± 0.092
21,RELEAFAEIFKQRRIKLGVTQADVGSALANLKIPGVGSLSQSTICRFESLTLSHNNMIALKPILQAWLEEAEGAQREKMNKP [R9I],-0.004 ± 0.29
22,RELEAFAERFKQRRIKLGVTQADVGSALANLKIPGVGSLDQSTICRFESLTLSHNNMIALKPILQAWLEEAEGAQREKMNKP [S40D],0.042 ± 0.099
23,RELEAFAERFKQRRIKLGVTQADVGSALANLKIPGVGSLSQSTICRFESLTLSHNNMIALKPILQAWLCEAEGAQREKMNKP [E69C],-0.168 ± 0.07

row,Variant,abundance fitness
1,RELEAFAERFKQRRIKLGVTQADVGSALANLKIPGVGSLSQSTICRFESLTLSHNNMIALKPILQAWLPEAEGAQREKMNKP [E69P],-0.612 ± 0.14
2,RELEAFAERFKQRRIKLGVTQADVGSALANLKIPGVGSLSQSTICRFESLTLSHNNLIALKPILQAWLEEAEGAQREKMNKP [M57L],-0.031 ± 0.037
3,RELEAFAERFKQRRIRLGVTQADVGSALANLKIPGVGSLSQSTICRFESLTLSHNNMIALKPILQAWLEEAEGAQREKMNKP [K16R],0.035 ± 0.034
4,RELEAFAERFKQRRIKLGVTQADVGSALANLKIPGVGSLSQSTICRFESLTLSHNNMIALKPLLQAWLEEAEGAQREKMNKP [I63L],-0.113 ± 0.061
5,RELEAFAERFKQRRIKLGVTQADVGSALANLKIPGVGSLSQPTICRFESLTLSHNNMIALKPILQAWLEEAEGAQREKMNKP [S42P],-0.198 ± 0.083
6,RELEAFAERFKQRRIKLGVTQADVGSALANLKIPGVGSLSQWTICRFESLTLSHNNMIALKPILQAWLEEAEGAQREKMNKP [S42W],-0.18 ± 0.051
7,RELEAFAERFKQRRIKLGVTQADVGSALANLKIPGVGSLSQSTICRFESLTLSHNNMIALKPILQAWLEEAEGAQRHKMNKP [E77H],-0.092 ± 0.062
8,RELEAFAERFKQRRIKLGVTQADVGSALANCKIPGVGSLSQSTICRFESLTLSHNNMIALKPILQAWLEEAEGAQREKMNKP [L31C],-0.057 ± 0.037
9,RELEAFAERFKQRRIKLGVTQADVGSALANLKIPGVGSLSQSTICRFESLTLSHNNMIALYPILQAWLEEAEGAQREKMNKP [K61Y],0.007 ± 0.074
10,RELEAFAERFKQRRIKLGVTQADVGSALANLKIPGVGSLSQSTICRFESLTLSHNNMIALSPILQAWLEEAEGAQREKMNKP [K61S],-0.149 ± 0.047
11,RELEAFAERFKQRRIKLMVTQADVGSALANLKIPGVGSLSQSTICRFESLTLSHNNMIALKPILQAWLEEAEGAQREKMNKP [G18M],-0.639 ± 0.48
12,RELEAFAERFKQRRIKLEVTQADVGSALANLKIPGVGSLSQSTICRFESLTLSHNNMIALKPILQAWLEEAEGAQREKMNKP [G18E],-0.332 ± 0.13
13,RELEAFAERFKQRRIKLGVTQADVGSALANLKIPGVGSLSQSTICRFESLTLSHNNMIALKPILQAWLEGAEGAQREKMNKP [E70G],-0.061 ± 0.023
14,RELEAFAERFKQRRIKLGVTQAYVGSALANLKIPGVGSLSQSTICRFESLTLSHNNMIALKPILQAWLEEAEGAQREKMNKP [D23Y],-0.115 ± 0.094
15,RELEAFAERFKQRRIKLGVTQADVGSALANLKIPGVGSLSQSTICRFESLTLSHNNMIALKPILQAWLEEAEGAQREKMNKG [P82G],-0.011 ± 0.071
16,RELEAFAERFKQRRIKLGVTQMDVGSALANLKIPGVGSLSQSTICRFESLTLSHNNMIALKPILQAWLEEAEGAQREKMNKP [A22M],-0.237 ± 0.16
17,RELEAFAERFKQRRIKLGVTQADVGSALANLDIPGVGSLSQSTICRFESLTLSHNNMIALKPILQAWLEEAEGAQREKMNKP [K32D],0.022 ± 0.17
18,RELEAFAERFKQRRIKLGVTQADVGSALANLKIPGVGSLSQSTICWFESLTLSHNNMIALKPILQAWLEEAEGAQREKMNKP [R46W],-0.391 ± 0.067
19,RELEAFAERFKQRRIKLGVTQADVGSALANLKIPGVGSLSQSTICSFESLTLSHNNMIALKPILQAWLEEAEGAQREKMNKP [R46S],-0.009 ± 0.059
20,RTLEAFAERFKQRRIKLGVTQADVGSALANLKIPGVGSLSQSTICRFESLTLSHNNMIALKPILQAWLEEAEGAQREKMNKP [E2T],-0.195 ± 0.039
21,RELERFAERFKQRRIKLGVTQADVGSALANLKIPGVGSLSQSTICRFESLTLSHNNMIALKPILQAWLEEAEGAQREKMNKP [A5R],0.006 ± 0.037
22,RELEQFAERFKQRRIKLGVTQADVGSALANLKIPGVGSLSQSTICRFESLTLSHNNMIALKPILQAWLEEAEGAQREKMNKP [A5Q],0.047 ± 0.062
23,RELEVFAERFKQRRIKLGVTQADVGSALANLKIPGVGSLSQSTICRFESLTLSHNNMIALKPILQAWLEEAEGAQREKMNKP [A5V],-0.06 ± 0.039

row,Variant,abundance fitness
1,RELEAFAERFKQRRIKLGVTQADVQSALANLKIPGVGSLSQSTICRFESLTLSHNNMIALKPILQAWLEEAEGAQREKMNKP [G25Q],-0.001 ± 0.065
2,RELEAFAERFKQRRIKLGVTQADVNSALANLKIPGVGSLSQSTICRFESLTLSHNNMIALKPILQAWLEEAEGAQREKMNKP [G25N],-0.117 ± 0.17
3,RELEAFAERFKQRRIKLGVTQADVFSALANLKIPGVGSLSQSTICRFESLTLSHNNMIALKPILQAWLEEAEGAQREKMNKP [G25F],-0.119 ± 0.14
4,RELEAFAERFKQRRIKLGVTQADVGSALANLKYPGVGSLSQSTICRFESLTLSHNNMIALKPILQAWLEEAEGAQREKMNKP [I33Y],-0.21 ± 0.053
5,RELEAFAERFKQRRIKLGVTQADVGSALANLKMPGVGSLSQSTICRFESLTLSHNNMIALKPILQAWLEEAEGAQREKMNKP [I33M],-0.056 ± 0.036
6,RELEAFAERFKQRRIKLGVTQADVGSALANLKIPGVGSLSQSTICRFESLTLSHNNMIALKPILQAWLEEAEGAQREKINKP [M79I],0.008 ± 0.042
7,RELEAFAERFKQRRIKLGVTQADVGSALANLKIPGVGSLSQSTICRFESLTLSHNNMIALKPILQAWLEEAEGAQREKGNKP [M79G],0.009 ± 0.021
8,RELEAFAERFKQRRIKLGVTQADVGSALANLKIPGVGSLSQSTICRFSSLTLSHNNMIALKPILQAWLEEAEGAQREKMNKP [E48S],-0.979 ± 0.063
9,RELEAFAERFKQRRIKLGVTQADVGSALANLKIPGVGSLSQSTICRFWSLTLSHNNMIALKPILQAWLEEAEGAQREKMNKP [E48W],-0.811 ± 0.078
10,RELEAFADRFKQRRIKLGVTQADVGSALANLKIPGVGSLSQSTICRFESLTLSHNNMIALKPILQAWLEEAEGAQREKMNKP [E8D],-0.13 ± 0.16
11,RELEAFAERFKQRRIKLGVTQADVGSALANLKIPGVGSLSQSTICRFESLTLSHNNMIALKPILQAWLEEAEGTQREKMNKP [A74T],-0.013 ± 0.033
12,RELEAFAERFKQRRIKLGVTQADVGSALANLKIPGVGSLSQSTICRFESLTWSHNNMIALKPILQAWLEEAEGAQREKMNKP [L52W],-0.546 ± 0.071
13,RELEAFAERFKQRRIKLGVTQADVGSALANLKIPGVGSLSQSTICRFESLTFSHNNMIALKPILQAWLEEAEGAQREKMNKP [L52F],-0.24 ± 0.47
14,RELEAFAERFKQRRIKLGVTQADVGSALANLKIPGVGSLSQSTICRFESLTLSHNNMIALKPILQFWLEEAEGAQREKMNKP [A66F],-0.113 ± 0.048
15,RELEAFAERFKQRRIKLGITQADVGSALANLKIPGVGSLSQSTICRFESLTLSHNNMIALKPILQAWLEEAEGAQREKMNKP [V19I],-0.012 ± 0.078
16,RELEAFAERFKQRRIKLGVTQADVGSALANLKIPGVGSLSQSTICRFESLTLSHNNMIALKPILQAWLEEAEGAQREKMNFP [K81F],0.198 ± 0.27
17,RELEAFAERFKQRRIKLGVTQADVGSALANLKIPGVGSLSQSTICRFESLTLSANNMIALKPILQAWLEEAEGAQREKMNKP [H54A],0.01 ± 0.038
18,RELEAFAERFKQRRIKLGVTQADVGSALANLKIPGVGSLSQSTICRFESLTLSPNNMIALKPILQAWLEEAEGAQREKMNKP [H54P],0.041 ± 0.045
19,RELEAFAERFKARRIKLGVTQADVGSALANLKIPGVGSLSQSTICRFESLTLSHNNMIALKPILQAWLEEAEGAQREKMNKP [Q12A],-0.004 ± 0.03
20,RELEAFAERFKIRRIKLGVTQADVGSALANLKIPGVGSLSQSTICRFESLTLSHNNMIALKPILQAWLEEAEGAQREKMNKP [Q12I],-0.144 ± 0.056
21,RELEAFAERFKQRRIKLGVTQADVGSALANLKIPGVGSCSQSTICRFESLTLSHNNMIALKPILQAWLEEAEGAQREKMNKP [L39C],-0.096 ± 0.071

# Source: the Human Domainome abundance scans (Beltran et al. 2025)
